Sequences and labels used below:
B1: mouse ZP2 N-terminal ZP-N1 domain (mZP2-N1), His-tagged (domain or fragment)
chain: VSLPQSENPAFPGTLICDKDEVRIEFSSRFDMEKWNPSVVDTLGSEILNCTYALDLERFVLKFPYETCTIKVVGGYQVNIRVGDTTTDVRYKDDMYHFFCPAIQ
B2: rZP2-N1 S113R (domain or fragment)
chain: SLPQSENPAFPGTLICDKDEVRVEFSSRFDMEKWNPSLVDTFGNEISSCTYALDLEKFILKFPYETCTIKVIGGYQVNIRVQDTNADVRYKDDVHHFFCPAIQ

Consider three molecules from article doi:10.1101/2025.03.03.641048 (2025).

This assay deals with IE-3 fragment antigen-binding (Fab) region, recombinant, labelled (labeled with the Blue-NHS labeling kit (chain not told) | labeled with the Blue-NHS labeling kit (chain not told)). Description: MST.
For the molecule TIKVVGGYQVNIRVGDTTTDVRYKDDMYHFFCPAIQ (domain or fragment) [mZP2 T103-Q138 linear epitope fused to maltose-binding protein], the Kd is 8.9 nM. For B1 the value was 0.3 nM. On to B2, for which the Kd was 16.3 nM.

By Kd is commonly meant the free concentration of one partner at which half of the binding sites on the other are occupied at equilibrium, for simple one-to-one binding.
